# According to paper PMC2605961:
# Where a chain is given by its changes, count along the chain named.
# T1: His-PRH N187A (human, UniProt Q03014 7-270, N187A)
# T1 sequence: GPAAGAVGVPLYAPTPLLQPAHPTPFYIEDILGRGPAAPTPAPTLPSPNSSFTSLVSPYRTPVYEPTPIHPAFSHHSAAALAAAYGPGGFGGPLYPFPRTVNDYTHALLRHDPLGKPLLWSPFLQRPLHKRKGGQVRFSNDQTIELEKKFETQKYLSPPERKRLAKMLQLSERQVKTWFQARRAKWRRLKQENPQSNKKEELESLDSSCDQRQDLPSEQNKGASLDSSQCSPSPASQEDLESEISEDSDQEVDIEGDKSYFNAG
# T2: His-PRH R188A,R189A (human, UniProt Q03014 7-270, R188A;R189A)
# T2 sequence: T1 sequence with A181N, R182A, R183A
# T3: His-PRH F32E (human, UniProt Q03014 7-270, F32E)
# T3 sequence: T1 sequence with F26E, A181N
# T4: His-PRH (wild type) (human, UniProt Q03014 7-270)
# T4 sequence: T1 sequence with A181N
# B1: PRH-binding site oligonucleotide (dsDNA)
# DNA 1: GCTTCTGGGAAGCAATTAAAAAATGGCTCGAGCT
# DNA 2: CGAGCCATTTTTTAATTGCTTCCCAGA
# Columns and labels:
# Test in all cases: EMSA
# [1] = target: T1, His-PRH N187A
# [2] = target: T2, His-PRH R188A,R189A
# [3] = target: T3, His-PRH F32E
# [4] = target: T4, His-PRH (wild type)
binder,measurement,setting,value
B1,binding result,[1],no binding
same,binding result,[2],no binding
same,binding result,[3],binds
same,binding result,[4],binds
